This is an account of results in patent US20200079876A1 (BIOVERATIV USA, published 2020).

Experiment [1] has as its target T1, recombinant human complement component C1s (rhC1s) (human, UniProt P09871 16-688).
T1 sequence (looked up): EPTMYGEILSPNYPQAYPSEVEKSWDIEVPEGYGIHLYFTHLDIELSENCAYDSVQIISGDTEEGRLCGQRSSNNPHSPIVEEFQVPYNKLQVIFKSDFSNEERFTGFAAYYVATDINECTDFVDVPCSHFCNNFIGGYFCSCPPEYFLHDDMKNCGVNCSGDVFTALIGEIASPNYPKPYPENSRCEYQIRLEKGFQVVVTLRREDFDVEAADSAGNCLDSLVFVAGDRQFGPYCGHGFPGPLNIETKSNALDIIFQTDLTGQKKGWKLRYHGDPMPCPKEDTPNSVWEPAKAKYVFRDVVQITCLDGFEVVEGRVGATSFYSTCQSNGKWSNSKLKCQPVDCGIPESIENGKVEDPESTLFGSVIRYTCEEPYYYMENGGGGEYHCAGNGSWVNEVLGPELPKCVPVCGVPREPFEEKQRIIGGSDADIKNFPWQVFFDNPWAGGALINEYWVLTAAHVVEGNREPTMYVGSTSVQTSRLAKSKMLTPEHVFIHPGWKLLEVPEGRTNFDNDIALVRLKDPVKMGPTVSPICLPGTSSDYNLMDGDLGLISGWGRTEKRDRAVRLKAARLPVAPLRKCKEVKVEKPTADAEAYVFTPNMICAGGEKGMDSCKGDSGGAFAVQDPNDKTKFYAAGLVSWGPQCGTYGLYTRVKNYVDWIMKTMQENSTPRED
The experiment in a line: cell-based or functional assay.

Experiment [2] deals with T1, recombinant human complement component …. The experiment in a line: cell-based or functional assay. The source holds these as a separate data set.
The target in the next experiment is T2, Pro-C1s.
T2 construct: also called purified pro-C1s protein
T2 chain: T1 sequence (looked up)
Nature of the experiment: bio-layer interferometry (BLI), kinetic analysis. In general terms: BLI is a label-free optical method that tracks binding on a fibre tip over time.

In experiment [3] the target is T3, purified human activated C1s protein, two-chain form (Homo sapiens, UniProt P09871 16-688).
T3 construct: Purified protein bought from EMD Millipore; Biotin-labeled in the clone screen; also called active C1s; native C1s protein
T3 sequence: T1 sequence (looked up)
Nature of the experiment: bio-layer interferometry (BLI), kinetic analysis.

B1: antibody IPN-M13 (antibody, V domains shown)
VH: EVQLQQSGAELVRPGASVKLSCTASGFNIKDDYIHWVKQRPEQGLEWIGRIDPADDHTKYAPKFQDKATMTADTSSNTACLQLNSLTSEDTAVYYCAIYGSGWAWFPYWGQGTLVSVSA
VL: DIVLTQSTDYLAVSLGQRATISCKASQSVDYDGDSYMNWYQQKPGQPPKLLIYAASNLESGIPARFSGSGSGTDFTLNIHPVEEEDAATYYCQQSNEDPWTFGGGTKLEIK
notes: Mouse monoclonal antibody (NZBW hybridoma); Same VL and VH as IPN-M1 and IPN-M3
In the case of B1, the “inhibition of C1s protease activity (relative to nafamostat)” value in experiment [1] was over 50%. For the same molecule, in experiment [2], the “Inhibition of C1s Protease Activity (%), single point with clone supernatant, relative to 100 nM nafamostat” value was 96%. Also, in the experiment with Pro-C1s, the Kd (in general, the equilibrium constant for the complex coming apart) was found to be 15.9 nM; the off-rate constant (koff) (commonly the rate constant with which the complex falls apart) is 0.000258 s⁻¹; the kon (usually the rate constant with which the complex forms) was determined as 16200 M⁻¹ s⁻¹. Moreover, in experiment [3], the Kd is 0.133 nM, the koff came to 0.000113 s⁻¹ and the kon was 851000 M⁻¹ s⁻¹.
